Target: T1, MEIS1 (human, UniProt O00470 1-390)
T1 sequence: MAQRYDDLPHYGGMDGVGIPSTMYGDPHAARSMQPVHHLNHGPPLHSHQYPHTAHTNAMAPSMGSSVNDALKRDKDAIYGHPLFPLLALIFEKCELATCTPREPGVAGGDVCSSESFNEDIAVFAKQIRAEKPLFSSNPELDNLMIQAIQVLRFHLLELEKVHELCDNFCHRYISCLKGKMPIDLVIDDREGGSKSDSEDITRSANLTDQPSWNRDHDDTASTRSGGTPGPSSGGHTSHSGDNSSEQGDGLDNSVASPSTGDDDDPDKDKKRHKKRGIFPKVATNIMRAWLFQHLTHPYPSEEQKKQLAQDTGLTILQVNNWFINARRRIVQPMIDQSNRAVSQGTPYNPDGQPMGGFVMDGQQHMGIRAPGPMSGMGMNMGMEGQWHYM
Test: EMSA; EMSA: LightShift Chemiluminescent EMSA kit per manufacturer (buffer not given); protein stock in 50 mM Tris, 200 mM NaCl, 10 mM 2-mercaptoethanol, 10% glycerol, pH 7.5. Pull-down: streptavidin beads, 1 h at 4 C, PBS washes
Conditions: protein: recombinant; tags: His6-MBP-TEV, tag removed by TEV protease; label: 5' biotin on both strands; blunt

B1: probe1 (hEC1 MEIS1 site) (dsDNA)
DNA 1: GGAAATGCGGCCCATCAATCATAAACTGATTACAAATTCGTCA
DNA 2: TGACGAATTTGTAATCAGTTTATGATTGATGGGCCGCATTTCC
Q: Does B1 bind?
A: binds

From publication PMC12085581, “Auricular malformations are driven by copy number variations in a hierarchical enhancer cluster and a dominant enhancer recapitulates human pathogenesis”
